Biological target: amylin receptor (rat basal forebrain membranes containing the nucleus accumbens and surrounding regions) (rat)
Test: competition with 125I-Bolton-Hunter rat amylin on rat basal forebrain membranes, filtration

Chain of 29Pro-h-Amylin (peptide) (peptide): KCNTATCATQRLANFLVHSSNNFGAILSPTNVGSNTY
Chain of 28Pro-h-Amylin (peptide) (peptide): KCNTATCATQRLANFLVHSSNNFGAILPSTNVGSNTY

Substance	IC50
29Pro-h-Amylin (peptide)	0.064 nM
1Ser-h-Amylin (peptide)	0.033 nM
1Ala-h-Amylin (peptide)	0.148 nM
28Pro-h-Amylin (peptide)	0.015 nM
purified human amylin (from UniProt P10997 34-70) (peptide)	0.05 nM

Source: patent US7407934
